In PMC6702468:
Positions count from the first letter of the chain named. Names and notes keep the numbering of the source.

B1: NsLsi1 (NsNIP2-1) (Nicotiana sylvestris) (protein)
chain: MESERGNSTENKKPNELVSVENPKSNLSFRYILIFFQEHYPPGFLKKVIAEVIATYLLVFVTCGAAAISASDEHKVSRLGASVAGGLIVTVMIYAVGHISGAHMNPAVTFAFAAVRHFPWRQVPPYAAAQLTGATSAAFTLRVLLHPIKHVGTTTPSGSDIQALIMEIVVTFSMMFITSAVATDTKAIGELAGMAVGSAVCITSILAGPVSGGSMNPARTIGPAMASNDYRGIWVYIIGPVCGTLLGAWSYNFIRVTDKPVHAIAPGQSFSFKLRRMKSNDEEQGV
B2: NsLsi1 (NsNIP2-1) (Nicotiana sylvestris; P125F) (protein)
chain: B1 chain with P125F

Substrate: O[Si](O)(O)O
Experiment: cells, lysate or membranes
Conditions: unit not printed beside Km, taken from [Si]ext in mM

Row | Protein | Km (3 hr exposure in modified Barth's solution pH 7.4, room temperature, H2O-injected background subtracted, transport, R2 = 0.90, pH 7.4) | Km (otherwise as WT, paper states a linear equation fits best (R2 = 0.99) and Km lies far above the tested range (up to 2 mM))
1 | B1 | 0.94 ± 0.30 mM | 
2 | B2 |  | 12.83 ± 8.49 mM
